Source: US20130252282A1

Tests used:
[1] = target: Dronpa145N (Pectimidae genus coral); test: inferred from native PAGE of 100 µM protein after cyan (about 500 nm) illumination; self-association, off-photoswitched state
Cdc42 = Cdc42 (UniProt P60766); test: cell-based or functional assay
Sequence of UniProt P60766 (P60766 1-188 limits assumed): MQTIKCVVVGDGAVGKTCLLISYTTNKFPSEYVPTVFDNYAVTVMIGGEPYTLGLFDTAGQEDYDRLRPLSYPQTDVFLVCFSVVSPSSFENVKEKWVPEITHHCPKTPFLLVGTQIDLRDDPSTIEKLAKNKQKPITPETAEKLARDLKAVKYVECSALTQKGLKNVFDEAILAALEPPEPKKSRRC

## Dronpa145N
[1]
  Kd: > 100 µM

## K-I-N-CAAX (Dronpa145K-intersectin DH domain-Dronpa145N-CAAX) (from UniProt Q15811 1234-1428) (enzyme)
Cdc42
  basal filopodia or lamellipodia in low expressers: 8%
  cells forming abundant filopodia within 30 minutes after illumination: 90%
  cells forming filopodia, not exposed to light: 25%

## N-I-N-CAAX (Dronpa145N-intersectin DH domain-Dronpa145N-CAAX) (from UniProt Q15811 1234-1428)
Cdc42
  basal filopodia or lamellipodia in low expressers: 0%

## N-I-N-CAAX (Dronpa145N-intersectin DH domain-Dronpa145N-CAAX) (from UniProt Q15811 1234-1428) (enzyme)
Cdc42
  cells forming abundant filopodia within 30 minutes after 490/20-nm light for 30 seconds: 78%
  cells forming filopodia in the same time interval without illumination: 10%
